Patent publication US20140072613A1 (published 2014)

Legend:
Experiment in all cases: cell-based or functional assay
[1] = target: CDK7/cyclinH/MAT1(h) (human, UniProt P50613 1-346; P51946 1-323; P51948 1-309)
[2] = target: NEK6(h) (human, UniProt Q9HC98 1-313)
[3] = target: T1, GRK7(h) (human, UniProt Q8WTQ7 1-553)
T1 sequence (looked up): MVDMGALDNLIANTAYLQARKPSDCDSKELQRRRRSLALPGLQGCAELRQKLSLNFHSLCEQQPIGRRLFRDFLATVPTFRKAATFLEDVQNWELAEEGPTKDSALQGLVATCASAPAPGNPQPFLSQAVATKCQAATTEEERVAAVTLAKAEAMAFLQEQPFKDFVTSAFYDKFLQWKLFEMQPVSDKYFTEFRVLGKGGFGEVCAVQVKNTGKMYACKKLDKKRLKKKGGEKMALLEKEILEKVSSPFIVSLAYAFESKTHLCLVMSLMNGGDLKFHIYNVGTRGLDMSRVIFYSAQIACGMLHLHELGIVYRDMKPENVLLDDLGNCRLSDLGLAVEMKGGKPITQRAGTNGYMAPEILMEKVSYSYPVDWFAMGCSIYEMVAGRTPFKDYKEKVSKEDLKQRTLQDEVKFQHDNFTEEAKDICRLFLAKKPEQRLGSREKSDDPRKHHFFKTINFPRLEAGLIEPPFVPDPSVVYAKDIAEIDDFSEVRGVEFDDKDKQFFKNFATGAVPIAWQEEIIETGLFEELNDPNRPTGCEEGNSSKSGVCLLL

[4] = target: DAPK2(h) (human, UniProt Q9UIK4 1-370, limits assumed)
[5] = target: PKCθ(h) (human, UniProt Q04759 1-706)
[6] = target: EphA7(h) (human, UniProt Q15375 577-998, limits assumed)
[7] = target: CHK2(R145W)(h) (human, UniProt O96017 5-543, limits assumed)
[8] = target: MLK1(h) (human, UniProt P80192 132-413, limits assumed)
[9] = target: IGF-1R(h), activated (human, UniProt P08069 959-1367, limits assumed)
[10] = target: Snk(h) (human, UniProt Q9NYY3 1-685, limits assumed)
[11] = target: T2, Ret(h) (human, UniProt P07949 658-1114, limits assumed)
T2 sequence (looked up): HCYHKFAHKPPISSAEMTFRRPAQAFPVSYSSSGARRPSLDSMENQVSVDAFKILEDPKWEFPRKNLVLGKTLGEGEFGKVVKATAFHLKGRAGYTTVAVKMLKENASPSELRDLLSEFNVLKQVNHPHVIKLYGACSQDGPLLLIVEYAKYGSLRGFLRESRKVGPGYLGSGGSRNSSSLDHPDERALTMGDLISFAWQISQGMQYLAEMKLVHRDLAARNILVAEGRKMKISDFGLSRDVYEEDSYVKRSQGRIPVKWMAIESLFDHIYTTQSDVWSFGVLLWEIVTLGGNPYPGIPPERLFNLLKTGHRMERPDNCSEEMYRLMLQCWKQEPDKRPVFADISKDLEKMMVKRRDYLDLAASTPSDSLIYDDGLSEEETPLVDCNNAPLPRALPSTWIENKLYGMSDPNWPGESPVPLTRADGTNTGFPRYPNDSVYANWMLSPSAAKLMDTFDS

[12] = target: Pyk2 (h) (human, UniProt Q14289 1-1009, limits assumed)
[13] = target: WNK3(h) (human, UniProt Q9BYP7 1-434, limits assumed)
[14] = target: Arg(h) (human, UniProt P42684 38-1182, limits assumed)
[15] = target: p70S6K(h) (human, UniProt P23443 1-421)
[16] = target: CHK2(I157T)(h) (human, UniProt O96017 5-543, limits assumed)
[17] = target: Lck(h) activated (human, UniProt P06239 1-509)
[18] = target: BTK(h) (human, UniProt Q06187 1-659)
[19] = target: T3, EphA1(h) (human, UniProt P21709 569-976, limits assumed)
T3 sequence (looked up): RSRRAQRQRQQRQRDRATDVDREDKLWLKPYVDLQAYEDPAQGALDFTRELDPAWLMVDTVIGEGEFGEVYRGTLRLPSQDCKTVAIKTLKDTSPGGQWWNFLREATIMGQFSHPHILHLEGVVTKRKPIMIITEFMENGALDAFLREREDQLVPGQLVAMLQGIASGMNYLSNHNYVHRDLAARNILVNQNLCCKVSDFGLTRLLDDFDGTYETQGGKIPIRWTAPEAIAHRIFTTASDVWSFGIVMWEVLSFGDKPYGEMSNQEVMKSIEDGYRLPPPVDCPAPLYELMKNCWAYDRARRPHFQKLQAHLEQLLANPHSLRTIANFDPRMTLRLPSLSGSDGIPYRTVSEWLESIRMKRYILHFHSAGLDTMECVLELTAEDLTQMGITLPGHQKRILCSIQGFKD

[20] = target: SAPK2a(T106M)(h) (human, UniProt Q16539 1-360)
[21] = target: Aurora-B(h) (human, UniProt Q96GD4 1-344)
[22] = target: Hck(h) (human, UniProt P08631 251-518, limits assumed)
[23] = target: Tie2(h) (human, UniProt Q02763 771-1124, limits assumed)

Sequence of CDK7/cyclinH/MAT1(h) (P50613 whole entry, chain 1 of 3): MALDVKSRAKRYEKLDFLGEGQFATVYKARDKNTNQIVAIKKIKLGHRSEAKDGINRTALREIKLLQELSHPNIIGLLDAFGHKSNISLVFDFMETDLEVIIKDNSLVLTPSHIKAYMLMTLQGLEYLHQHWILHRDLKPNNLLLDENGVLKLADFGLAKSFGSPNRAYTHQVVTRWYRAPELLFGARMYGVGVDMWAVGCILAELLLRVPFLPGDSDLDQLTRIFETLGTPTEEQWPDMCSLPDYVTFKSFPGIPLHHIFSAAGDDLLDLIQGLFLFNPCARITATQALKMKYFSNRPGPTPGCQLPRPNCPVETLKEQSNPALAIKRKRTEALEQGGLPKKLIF
Sequence of CDK7/cyclinH/MAT1(h) (P51946 whole entry, chain 2 of 3): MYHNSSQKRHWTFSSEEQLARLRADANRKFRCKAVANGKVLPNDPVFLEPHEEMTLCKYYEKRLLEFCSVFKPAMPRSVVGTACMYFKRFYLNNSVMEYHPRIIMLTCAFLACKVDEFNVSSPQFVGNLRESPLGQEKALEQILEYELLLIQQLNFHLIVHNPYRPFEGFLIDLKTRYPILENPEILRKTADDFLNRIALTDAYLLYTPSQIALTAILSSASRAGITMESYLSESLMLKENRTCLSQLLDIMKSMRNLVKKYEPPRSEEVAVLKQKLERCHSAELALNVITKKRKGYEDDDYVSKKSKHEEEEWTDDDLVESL
Sequence of CDK7/cyclinH/MAT1(h) (P51948 whole entry, chain 3 of 3): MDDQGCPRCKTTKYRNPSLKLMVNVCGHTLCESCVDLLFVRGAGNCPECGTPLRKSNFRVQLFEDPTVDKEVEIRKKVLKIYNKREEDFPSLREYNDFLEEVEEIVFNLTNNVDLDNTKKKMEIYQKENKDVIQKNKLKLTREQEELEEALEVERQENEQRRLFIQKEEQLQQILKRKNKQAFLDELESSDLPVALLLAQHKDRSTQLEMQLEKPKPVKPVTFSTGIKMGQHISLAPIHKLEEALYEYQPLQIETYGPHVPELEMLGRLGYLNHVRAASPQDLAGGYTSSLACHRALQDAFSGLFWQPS
Sequence of Arg(h) (P42684 38-1182 limits assumed): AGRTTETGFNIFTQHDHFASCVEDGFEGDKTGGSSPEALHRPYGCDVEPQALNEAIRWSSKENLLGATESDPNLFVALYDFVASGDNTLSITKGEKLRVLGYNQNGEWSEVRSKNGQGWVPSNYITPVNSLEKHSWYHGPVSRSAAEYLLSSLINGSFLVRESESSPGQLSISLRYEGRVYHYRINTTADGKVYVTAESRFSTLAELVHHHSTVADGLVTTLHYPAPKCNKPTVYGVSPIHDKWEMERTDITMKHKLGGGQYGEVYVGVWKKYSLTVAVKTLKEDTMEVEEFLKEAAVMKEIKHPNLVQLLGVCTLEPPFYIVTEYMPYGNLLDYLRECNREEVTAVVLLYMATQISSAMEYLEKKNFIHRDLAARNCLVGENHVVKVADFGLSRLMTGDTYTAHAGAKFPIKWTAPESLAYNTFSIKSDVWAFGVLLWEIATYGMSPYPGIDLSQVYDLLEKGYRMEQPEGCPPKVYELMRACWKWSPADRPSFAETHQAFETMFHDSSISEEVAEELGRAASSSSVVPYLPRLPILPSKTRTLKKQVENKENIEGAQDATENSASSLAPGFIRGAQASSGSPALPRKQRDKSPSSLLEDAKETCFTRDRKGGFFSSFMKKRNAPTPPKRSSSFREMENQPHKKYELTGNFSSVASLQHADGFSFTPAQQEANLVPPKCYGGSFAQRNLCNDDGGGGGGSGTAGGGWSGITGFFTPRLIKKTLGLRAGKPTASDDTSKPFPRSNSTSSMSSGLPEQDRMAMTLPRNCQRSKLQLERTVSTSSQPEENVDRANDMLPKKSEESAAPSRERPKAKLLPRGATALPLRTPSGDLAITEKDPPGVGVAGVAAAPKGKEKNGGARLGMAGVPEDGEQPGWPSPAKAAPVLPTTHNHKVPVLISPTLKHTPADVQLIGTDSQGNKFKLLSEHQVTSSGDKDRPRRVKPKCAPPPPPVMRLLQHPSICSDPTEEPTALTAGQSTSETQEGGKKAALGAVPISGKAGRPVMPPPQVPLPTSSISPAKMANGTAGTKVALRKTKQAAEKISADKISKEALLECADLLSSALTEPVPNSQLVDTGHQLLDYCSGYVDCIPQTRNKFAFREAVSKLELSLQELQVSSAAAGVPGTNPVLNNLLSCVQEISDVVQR
Sequence of Snk(h) (Q9NYY3 whole entry): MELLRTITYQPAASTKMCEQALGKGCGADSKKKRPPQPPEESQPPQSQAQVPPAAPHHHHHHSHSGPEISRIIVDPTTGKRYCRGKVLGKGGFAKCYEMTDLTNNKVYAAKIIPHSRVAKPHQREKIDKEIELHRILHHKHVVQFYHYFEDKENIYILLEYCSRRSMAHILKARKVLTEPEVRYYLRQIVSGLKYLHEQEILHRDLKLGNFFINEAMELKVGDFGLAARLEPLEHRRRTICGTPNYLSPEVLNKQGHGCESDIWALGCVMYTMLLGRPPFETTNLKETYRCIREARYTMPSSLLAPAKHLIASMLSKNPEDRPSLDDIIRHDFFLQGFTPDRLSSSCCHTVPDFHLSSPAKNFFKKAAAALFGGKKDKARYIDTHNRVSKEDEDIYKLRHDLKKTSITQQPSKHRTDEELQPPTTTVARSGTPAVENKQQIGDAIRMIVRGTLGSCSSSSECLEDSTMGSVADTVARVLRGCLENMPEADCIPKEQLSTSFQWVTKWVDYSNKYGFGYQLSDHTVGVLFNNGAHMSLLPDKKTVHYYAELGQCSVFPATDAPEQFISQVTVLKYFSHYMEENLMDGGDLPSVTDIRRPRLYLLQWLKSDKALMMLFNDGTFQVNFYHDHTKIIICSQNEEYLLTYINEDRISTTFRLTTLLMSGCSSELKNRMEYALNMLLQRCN
Sequence of Lck(h) activated (P06239 whole entry): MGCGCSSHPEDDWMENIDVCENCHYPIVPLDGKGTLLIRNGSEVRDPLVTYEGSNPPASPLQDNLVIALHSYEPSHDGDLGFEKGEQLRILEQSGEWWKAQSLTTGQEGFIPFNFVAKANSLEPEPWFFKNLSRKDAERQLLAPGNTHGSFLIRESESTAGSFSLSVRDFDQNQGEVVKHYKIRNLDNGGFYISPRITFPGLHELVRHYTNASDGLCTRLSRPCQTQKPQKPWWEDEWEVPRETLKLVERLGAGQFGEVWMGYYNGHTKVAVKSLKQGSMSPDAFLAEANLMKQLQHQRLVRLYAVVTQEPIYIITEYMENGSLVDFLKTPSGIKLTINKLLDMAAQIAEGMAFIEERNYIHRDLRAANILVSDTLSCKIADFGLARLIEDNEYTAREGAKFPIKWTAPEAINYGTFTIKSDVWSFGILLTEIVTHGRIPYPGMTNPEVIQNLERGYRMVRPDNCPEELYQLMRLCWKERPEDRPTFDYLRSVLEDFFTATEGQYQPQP
Sequence of CHK2(I157T)(h) (O96017 5-543 I157T limits assumed): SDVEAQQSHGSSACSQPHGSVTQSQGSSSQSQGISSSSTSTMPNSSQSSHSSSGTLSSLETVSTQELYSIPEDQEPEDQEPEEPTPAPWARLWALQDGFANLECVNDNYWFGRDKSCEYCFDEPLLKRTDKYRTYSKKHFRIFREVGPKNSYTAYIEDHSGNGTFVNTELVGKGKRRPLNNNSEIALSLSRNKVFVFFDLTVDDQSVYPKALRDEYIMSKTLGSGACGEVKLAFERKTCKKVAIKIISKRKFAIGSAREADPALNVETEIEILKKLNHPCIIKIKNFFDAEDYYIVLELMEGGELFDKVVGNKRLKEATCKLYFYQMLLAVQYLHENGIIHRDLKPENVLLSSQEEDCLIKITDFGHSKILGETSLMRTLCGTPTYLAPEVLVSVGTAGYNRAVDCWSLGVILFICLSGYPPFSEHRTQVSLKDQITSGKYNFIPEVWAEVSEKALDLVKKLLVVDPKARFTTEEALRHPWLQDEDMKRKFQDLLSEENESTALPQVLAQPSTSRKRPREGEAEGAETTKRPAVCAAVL
Sequence of Aurora-B(h) (Q96GD4 whole entry): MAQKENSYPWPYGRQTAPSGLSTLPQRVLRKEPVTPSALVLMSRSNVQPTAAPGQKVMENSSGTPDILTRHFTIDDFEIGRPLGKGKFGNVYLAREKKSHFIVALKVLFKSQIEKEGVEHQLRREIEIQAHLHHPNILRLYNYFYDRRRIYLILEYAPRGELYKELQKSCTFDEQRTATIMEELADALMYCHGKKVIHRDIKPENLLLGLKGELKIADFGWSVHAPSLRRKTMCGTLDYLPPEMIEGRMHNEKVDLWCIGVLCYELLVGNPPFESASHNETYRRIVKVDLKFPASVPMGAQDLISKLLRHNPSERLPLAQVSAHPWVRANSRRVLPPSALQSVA
Sequence of NEK6(h) (Q9HC98 whole entry): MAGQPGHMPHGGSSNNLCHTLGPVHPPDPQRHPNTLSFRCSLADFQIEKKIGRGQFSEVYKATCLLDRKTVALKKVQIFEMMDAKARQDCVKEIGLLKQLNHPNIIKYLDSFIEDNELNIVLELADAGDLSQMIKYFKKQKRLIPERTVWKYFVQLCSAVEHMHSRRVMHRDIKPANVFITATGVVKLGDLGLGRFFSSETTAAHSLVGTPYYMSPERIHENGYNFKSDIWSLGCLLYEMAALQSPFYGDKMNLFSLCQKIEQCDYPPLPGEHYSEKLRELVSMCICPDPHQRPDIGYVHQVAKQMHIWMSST
Sequence of DAPK2(h) (Q9UIK4 whole entry): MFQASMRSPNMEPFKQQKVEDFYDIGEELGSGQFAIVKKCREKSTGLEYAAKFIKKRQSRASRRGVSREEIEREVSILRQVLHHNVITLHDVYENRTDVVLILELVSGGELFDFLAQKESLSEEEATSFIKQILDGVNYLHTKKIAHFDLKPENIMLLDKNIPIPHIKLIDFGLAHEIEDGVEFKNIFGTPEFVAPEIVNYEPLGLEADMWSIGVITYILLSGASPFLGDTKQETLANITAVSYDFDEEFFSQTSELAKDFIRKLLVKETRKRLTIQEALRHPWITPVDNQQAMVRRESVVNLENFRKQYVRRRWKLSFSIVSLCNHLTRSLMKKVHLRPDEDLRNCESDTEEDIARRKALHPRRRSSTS
Sequence of CHK2(R145W)(h) (O96017 5-543 R145W limits assumed): as the sequence (O96017 5-543 I157T limits assumed) above, with R141W, T153I counted along it

| Binder | % activity, 100 µM [1] [%] | % activity, 100 µM [2] [%] | % activity, 100 µM [3] [%] | % activity, 100 µM [4] [%] | % activity, 100 µM [5] [%] | % activity, 100 µM [6] [%] | % activity, 100 µM [7] [%] | % activity, 100 µM [8] [%] | % activity, 100 µM [9] [%] | % activity, 100 µM [10] [%] | % activity, 100 µM [11] [%] | % activity, 100 µM [12] [%] | % activity, 100 µM [13] [%] | % activity, 100 µM [14] [%] | % activity, 100 µM [15] [%] | % activity, 100 µM [16] [%] | % activity, 100 µM [17] [%] | % activity, 100 µM [18] [%] | % activity, 100 µM [19] [%] | % activity, 100 µM [20] [%] | also measured |
| --- | --- | --- | --- | --- | --- | --- | --- | --- | --- | --- | --- | --- | --- | --- | --- | --- | --- | --- | --- | --- | --- |
| KAFAKLAARLYRKALARQLGVAA [MMI-0400] | 47 | 85 | 100 | 16 | 76 | 222 | 31 | 33 | 77 | 131 | 145 | 34 | 74 | 84 | 33 | 41 | 216 | 94 | 61 | 99 | % activity, 100 µM [21]: 150%; % activity, 100 µM [22]: 72%; % activity, 100 µM [23]: 21% |
| FAKLAARLYRKALARQLGVAA [MMI-0300] | 65 | 82 | 122 | 32 | 88 | 159 | 33 | 40 | 80 | 114 | 140 | 47 | 77 | 72 | 35 | 43 | 243 | 102 | 73 | 97 | % activity, 100 µM [21]: 128%; % activity, 100 µM [22]: 72%; % activity, 100 µM [23]: 26% |
